The text below walks through data of patent US20180282410A1 (Hoffmann-La Roche, published 2018).

Where two headings read alike, the source gives them in different places.

The target of assay [1] is T1, mouse Robo 4 on MS-1 mouse endothelial cells (mouse, UniProt Q8C310 28-1012).
T1 sequence: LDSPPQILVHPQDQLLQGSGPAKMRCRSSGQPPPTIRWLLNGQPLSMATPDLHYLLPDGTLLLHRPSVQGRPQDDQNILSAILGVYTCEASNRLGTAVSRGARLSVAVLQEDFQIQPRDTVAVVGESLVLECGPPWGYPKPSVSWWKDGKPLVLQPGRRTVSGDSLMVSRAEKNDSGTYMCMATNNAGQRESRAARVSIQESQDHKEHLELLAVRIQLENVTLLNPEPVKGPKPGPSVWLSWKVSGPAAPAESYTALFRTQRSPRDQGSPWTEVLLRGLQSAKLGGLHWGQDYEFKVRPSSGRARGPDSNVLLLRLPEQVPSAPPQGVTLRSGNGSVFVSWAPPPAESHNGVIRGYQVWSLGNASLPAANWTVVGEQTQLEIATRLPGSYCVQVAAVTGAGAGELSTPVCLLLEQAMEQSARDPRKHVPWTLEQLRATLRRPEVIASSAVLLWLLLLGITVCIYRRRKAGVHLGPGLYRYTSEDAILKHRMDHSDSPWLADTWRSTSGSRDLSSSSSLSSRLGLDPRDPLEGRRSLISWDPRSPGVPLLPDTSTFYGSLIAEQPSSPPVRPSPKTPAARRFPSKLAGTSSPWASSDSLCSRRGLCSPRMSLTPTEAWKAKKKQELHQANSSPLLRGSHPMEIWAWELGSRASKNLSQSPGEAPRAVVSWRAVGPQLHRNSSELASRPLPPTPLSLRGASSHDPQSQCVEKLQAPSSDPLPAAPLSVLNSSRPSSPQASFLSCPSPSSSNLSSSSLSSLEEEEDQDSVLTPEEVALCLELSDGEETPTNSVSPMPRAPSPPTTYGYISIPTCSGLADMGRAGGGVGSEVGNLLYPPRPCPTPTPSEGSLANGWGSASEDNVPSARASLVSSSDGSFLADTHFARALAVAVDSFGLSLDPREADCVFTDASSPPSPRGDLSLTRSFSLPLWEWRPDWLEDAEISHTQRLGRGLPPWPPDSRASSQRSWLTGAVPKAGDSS
The experiment in a line: cell-based or functional assay.

In assay [2] the target is T1, mouse Robo 4 on MS-1 mouse endothelial …. The experiment in a line: cell-based or functional assay. This is another data set of the same source.
In assay [3] the target is T2, full-length human Robo 4 (on cells) (human, UniProt Q8WZ75 28-1007).
T2 sequence: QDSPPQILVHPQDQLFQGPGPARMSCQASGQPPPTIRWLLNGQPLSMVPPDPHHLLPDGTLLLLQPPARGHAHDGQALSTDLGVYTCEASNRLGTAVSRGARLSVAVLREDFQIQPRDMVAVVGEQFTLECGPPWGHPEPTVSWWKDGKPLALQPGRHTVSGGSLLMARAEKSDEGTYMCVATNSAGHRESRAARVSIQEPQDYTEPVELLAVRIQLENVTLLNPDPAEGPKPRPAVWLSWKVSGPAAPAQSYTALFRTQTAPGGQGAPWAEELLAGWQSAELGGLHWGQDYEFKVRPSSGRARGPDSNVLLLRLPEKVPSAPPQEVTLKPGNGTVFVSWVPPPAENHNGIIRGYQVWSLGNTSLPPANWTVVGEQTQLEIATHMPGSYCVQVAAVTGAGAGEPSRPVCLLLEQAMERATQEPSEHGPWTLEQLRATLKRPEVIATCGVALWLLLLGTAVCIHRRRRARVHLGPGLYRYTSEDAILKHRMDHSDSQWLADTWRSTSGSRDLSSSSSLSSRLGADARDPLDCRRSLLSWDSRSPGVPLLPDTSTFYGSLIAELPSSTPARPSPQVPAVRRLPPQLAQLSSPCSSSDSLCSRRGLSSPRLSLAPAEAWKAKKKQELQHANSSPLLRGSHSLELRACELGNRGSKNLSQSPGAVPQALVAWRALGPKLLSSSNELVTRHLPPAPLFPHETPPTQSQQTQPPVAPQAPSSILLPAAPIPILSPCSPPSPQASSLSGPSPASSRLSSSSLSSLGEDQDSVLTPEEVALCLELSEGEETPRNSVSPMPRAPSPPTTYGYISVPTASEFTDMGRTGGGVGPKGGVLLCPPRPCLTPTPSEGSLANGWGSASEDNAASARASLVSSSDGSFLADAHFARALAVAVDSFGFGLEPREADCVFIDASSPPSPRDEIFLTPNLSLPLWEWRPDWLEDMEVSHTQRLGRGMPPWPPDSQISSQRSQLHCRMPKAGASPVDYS
The experiment in a line: cell-based or functional assay.

Assay [4] deals with T2, full-length human Robo 4 (on cells). The experiment in a line: cell-based or functional assay. The source holds these as a separate data set.
The target is the same in assay [5]. The experiment in a line: cell-based or functional assay. The source holds these as a separate data set.
Assay [6] addresses T1, mouse Robo 4 on MS-1 mouse endothelial …. The experiment in a line: cell-based or functional assay. This is another data set of the same source.
Assay [7] deals with T3, recombinant human Robo1 antigen (human, UniProt Q9Y6N7 59-886, limits assumed).
T3 construct: limits of the construct and tags are not described in the text; also called human Robol
The experiment in a line: ELISA, hybridoma supernatant. (In general: In an ELISA, binding on a coated surface is turned into a signal by an enzyme label.)

T3 sequence (Q9Y6N7 other isoform, or with tags, fused parts or gaps limits assumed): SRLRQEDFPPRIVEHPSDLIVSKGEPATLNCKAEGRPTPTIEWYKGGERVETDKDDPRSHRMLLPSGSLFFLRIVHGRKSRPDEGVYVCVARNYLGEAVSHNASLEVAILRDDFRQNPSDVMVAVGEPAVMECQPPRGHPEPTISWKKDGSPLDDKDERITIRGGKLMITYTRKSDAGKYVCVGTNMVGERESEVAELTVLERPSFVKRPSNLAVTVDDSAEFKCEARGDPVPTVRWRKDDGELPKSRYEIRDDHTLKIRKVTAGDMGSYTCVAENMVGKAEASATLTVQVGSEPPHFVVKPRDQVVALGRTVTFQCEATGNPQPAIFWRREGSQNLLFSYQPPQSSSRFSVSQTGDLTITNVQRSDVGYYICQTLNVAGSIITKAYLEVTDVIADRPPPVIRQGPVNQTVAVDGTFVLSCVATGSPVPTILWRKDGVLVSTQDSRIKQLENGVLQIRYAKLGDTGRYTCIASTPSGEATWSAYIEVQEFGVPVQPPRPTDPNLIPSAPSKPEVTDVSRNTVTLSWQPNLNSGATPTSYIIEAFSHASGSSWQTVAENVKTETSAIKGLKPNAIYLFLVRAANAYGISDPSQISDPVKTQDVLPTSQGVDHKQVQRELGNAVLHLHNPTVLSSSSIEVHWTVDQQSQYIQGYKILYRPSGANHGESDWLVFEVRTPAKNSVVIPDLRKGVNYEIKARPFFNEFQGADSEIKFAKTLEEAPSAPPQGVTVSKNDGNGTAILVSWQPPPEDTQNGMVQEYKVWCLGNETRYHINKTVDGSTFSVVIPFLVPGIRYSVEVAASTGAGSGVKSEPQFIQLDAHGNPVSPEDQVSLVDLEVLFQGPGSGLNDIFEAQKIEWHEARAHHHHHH

B1: Molecule J, 1+1 Fab-CrossFab (VH/VL exchange in CD3 binder, CD3 binder V9, Robo 4 binder 01F05) (bispecific antibody)
chain 1: QVQLKQSGAELVKPGASVKISCKTSVYTFTYGYMHWVEQKPGQGLEWIGRIDPDSGNSMYNQKFQGRATLTRDKSSSTVYMELRSLTSEDSAVYYCARSMRYSGYRDYALDLWGQGTQVTVSSASTKGPSVFPLAPSSKSTSGGTAALGCLVKDYFPEPVTVSWNSGALTSGVHTFPAVLQSSGLYSLSSVVTVPSSSLGTQTYICNVNHKPSNTKVDKKVEPKSCDGGGGSGGGGSDIQMTQSPSSLSASVGDRVTITCRASQDIRNYLNWYQQKPGKAPKLLIYYTSRLESGVPSRFSGSGSGTDYTLTISSLQPEDFATYYCQQGNTLPWTFGQGTKVEIKSSASTKGPSVFPLAPSSKSTSGGTAALGCLVKDYFPEPVTVSWNSGALTSGVHTFPAVLQSSGLYSLSSVVTVPSSSLGTQTYICNVNHKPSNTKVDKKVEPKSC
chain 2: QLVLTQSPSASASLGASVKLTCTLSSQHSSYGITWLQQHPDKAPKYVMYLKSDGSHTKGADIPDRFSGSSSGVHRYLSISNVQPEDEAIYFCVTYDSTHVFGSGTQLTVLGQPKAAPSVTLFPPSSEELQANKATLVCLISDFYPGAVTVAWKADSSPVKAGVETTTPSKQSNNKYAASSYLSLTPEQWKSHRSYSCQVTHEGSTVEKTVAPTECS
chain 3: EVQLVESGGGLVQPGGSLRLSCAASGYSFTGYTMNWVRQAPGKGLEWVALINPYKGVSTYNQKFKDRFTISVDKSKNTAYLQMNSLRAEDTAVYYCARSGYYGDSDWYFDVWGQGTLVTVSSASVAAPSVFIFPPSDEQLKSGTASVVCLLNNFYPREAKVQWKVDNALQSGNSQESVTEQDSKDSTYSLSSTLTLSKADYEKHKVYACEVTHQGLSSPVTKSFNRGEC
For the molecule B1, in assay [1], the “EC50 of T-cell mediated killing of MS-1 cells (LDH release, human PBMCs, E:T 10:1), 24 h” value came to 0.294 nM and the “EC50 of T-cell mediated killing of MS-1 cells (LDH release, human PBMCs, E:T 10:1), 48 h” value amounted to 0.106 nM. Further, in assay [2], the “EC50 of T-cell mediated killing of MS-1 cells (LDH release, human pan T cells, E:T 5:1, 17 h)” value turned out to be 0.004 nM. Also, in assay [3], the “EC50 of T-cell mediated killing of HUVECs (LDH release, human PBMCs, E:T 10:1), 24 h” value (shortened to “EC50 of T-cell mediated killing of HUVECs … 24 h”) was 0.105 nM and the “EC50 of T-cell mediated killing of HUVECs (LDH release, human PBMCs, E:T 10:1), 48 h” value (from here on “EC50 of T-cell mediated killing of HUVECs … 48 h”) amounted to 0.0472 nM. For the same molecule, the “EC50 of T-cell mediated killing of HUVECs (LDH release, human pan T cells, E:T 5:1, 22 h)” value in assay [4] turned out to be 0.026 nM. In assay [5], the “EC50 of T-cell mediated killing of HUVECs … 24 h” value came out at 0.204 nM and the “EC50 of T-cell mediated killing of HUVECs … 48 h” value was 0.127 nM.

B2: Molecule B, 1+1 CrossFab-IgG (VH/VL exchange in CD3 binder, CD3 binder V9, Robo 4 binder 01F05) (bispecific antibody)
chain 1: not shown
chain 2: QLVLTQSPSASASLGASVKLTCTLSSQHSSYGITWLQQHPDKAPKYVMYLKSDGSHTKGADIPDRFSGSSSGVHRYLSISNVQPEDEAIYFCVTYDSTHVFGSGTQLTVLGQPKAAPSVTLFPPSSEELQANKATLVCLISDFYPGAVTVAWKADSSPVKAGVETTTPSKQSNNKYAASSYLSLTPEQWKSHRSYSCQVTHEGSTVEKTVAPTECS
chain 3: EVQLVESGGGLVQPGGSLRLSCAASGYSFTGYTMNWVRQAPGKGLEWVALINPYKGVSTYNQKFKDRFTISVDKSKNTAYLQMNSLRAEDTAVYYCARSGYYGDSDWYFDVWGQGTLVTVSSASVAAPSVFIFPPSDEQLKSGTASVVCLLNNFYPREAKVQWKVDNALQSGNSQESVTEQDSKDSTYSLSSTLTLSKADYEKHKVYACEVTHQGLSSPVTKSFNRGEC
chain 4: DKTHTCPPCPAPEAAGGPSVFLFPPKPKDTLMISRTPEVTCVVVDVSHEDPEVKFNWYVDGVEVHNAKTKPREEQYNSTYRVVSVLTVLHQDWLNGKEYKCKVSNKALGAPIEKTISKAKGQPREPQVCTLPPSRDELTKNQVSLSCAVKGFYPSDIAVEWESNGQPENNYKTTPPVLDSDGSFFLVSKLTVDKSRWQQGNVFSCSVMHEALHNHYTQKSLSLSPGK
For B2, the “EC50 of T-cell mediated killing of MS-1 cells (LDH release, human pan T cells, E:T 5:1, 17 h)” value in assay [2] was 0.115 nM. For the same molecule, in assay [4], the “EC50 of T-cell mediated killing of HUVECs (LDH release, human pan T cells, E:T 5:1, 22 h)” value came out at 0.164 nM. Also, in assay [5], the “EC50 of T-cell mediated killing of HUVECs … 24 h” value is 1.61 nM and the “EC50 of T-cell mediated killing of HUVECs … 48 h” value was determined as 1.55 nM.

B3: Molecule K, 1+1 Fab-CrossFab (VH/VL exchange in CD3 binder, CD3 binder 2C11, Robo 4 binder 01F05) (bispecific antibody)
chain 1: DIQMTQSPSSLPASLGDRVTINCQASQDISNYLNWYQQKPGKAPKLLIYYTNKLADGVPSRFSGSGSGRDSSFTISSLESEDIGSYYCQQYYNYPWTFGPGTKLEIKSSASTKGPSVFPLAPSSKSTSGGTAALGCLVKDYFPEPVTVSWNSGALTSGVHTFPAVLQSSGLYSLSSVVTVPSSSLGTQTYICNVNHKPSNTKVDKKVEPKSCGGGGSGGGGSQVQLKQSGAELVKPGASVKISCKTSVYTFTYGYMHWVEQKPGQGLEWIGRIDPDSGNSMYNQKFQGRATLTRDKSSSTVYMELRSLTSEDSAVYYCARSMRYSGYRDYALDLWGQGTQVTVSSASTKGPSVFPLAPSSKSTSGGTAALGCLVKDYFPEPVTVSWNSGALTSGVHTFPAVLQSSGLYSLSSVVTVPSSSLGTQTYICNVNHKPSNTKVDKKVEPKSCD
chain 2: QLVLTQSPSASASLGASVKLTCTLSSQHSSYGITWLQQHPDKAPKYVMYLKSDGSHTKGADIPDRFSGSSSGVHRYLSISNVQPEDEAIYFCVTYDSTHVFGSGTQLTVLGQPKAAPSVTLFPPSSEELQANKATLVCLISDFYPGAVTVAWKADSSPVKAGVETTTPSKQSNNKYAASSYLSLTPEQWKSHRSYSCQVTHEGSTVEKTVAPTECS
chain 3: EVQLVESGGGLVQPGKSLKLSCEASGFTFSGYGMHWVRQAPGRGLESVAYITSSSINIKYADAVKGRFTVSRDNAKNLLFLQMNILKSEDTAMYYCARFDWDKNYWGQGTMVTVSSASVAAPSVFIFPPSDEQLKSGTASVVCLLNNFYPREAKVQWKVDNALQSGNSQESVTEQDSKDSTYSLSSTLTLSKADYEKHKVYACEVTHQGLSSPVTKSFNRGEC
In the case of B3, in assay [6], the “EC50 of T cell mediated killing of MS-1 cells by murine splenocytes (LDH release, E:T 10:1, 48 and 72 h)” value worked out at 1.3 nM.

B4: 01F09 hybridoma clone (Armenian hamster IgG, supernatant) (antibody, V domains shown)
VH: QIQLQESGPGLVKPSQSLSLTCSVTGYSISSGSLWTWIRQFPGNNLEWMGYISYAGGIDYNPSLTSRISITRDTSRNQFFLQLESVTTQDTATYYCATPGGYPFHFDYWGQGTMVTVSS
VL: QPVLTQSPSASASLGASVKLTCTLNSQFSTYNIGWYQQHRDKPPKYVMFVKGDGGHSKADGIPDRFSGSSSGADRYLTISNIQAEDEAIYFCGADYNNAGQYGCVFGSGTHFTVLG
Take B4: in assay [7], the binding result was “no binding”.

B5: 01E06 hybridoma clone (Armenian hamster IgG, supernatant) (antibody, V domains shown)
VH: EVQLVESGGGLSQPGNSLKLSCEASGFTFRNYDMSWVRQAPGKGLEWVAYISSGGGPIYYVDAVKGRFTISRDNAKNLLFLQMNNLRSEDTAVYYCARDLADIGVFDYWGQGTMVTVSS
VL: DFKMTQSPDILSPSLGESVTITCQSSQNIYSNLAWYQQKPGEHPKLLIYTASILADGIPSRFTGSGSGTQFSLKISSLQPDDVANYYCQQYVYYRTFGPGTKLEIK
Take B5: in assay [7], the binding result is recorded as “no binding”.

B6: 01F05 hybridoma clone (Armenian hamster IgG, supernatant) (antibody, V domains shown)
VH: QVQLKQSGAELVKPGASVKISCKTSVYTFTYGYMHWVEQKPGQGLEWIGRIDPDSGNSMYNQKFQGRATLTRDKSSSTVYMELRSLTSEDSAVYYCARSMRYSGYRDYALDLWGQGTQVTVSS
VL: QLVLTQSPSASASLGASVKLTCTLSSQHSSYGITWLQQHPDKAPKYVMYLKSDGSHTKGADIPDRFSGSSSGVHRYLSISNVQPEDEAIYFCVTYDSTHVFGSGTQLTVLG
For B6, the binding result in assay [7] is on record as “no binding”.
